Laboratory results as given in article PMC12796744.

Tests used:
GST-HMGN1 [1] = molecular target: GST-HMGN1 (UniProt P05114); test: in vitro multiplex nucleosome-bead conjugate binding assay; conditions: 0.625 nM GST-HMGN1, three technical replicates, parent: est. 37000, read off a plot
GST-HMGN1ΔC = test: as above; conditions: for response (RFU (background subtracted)): 0.625 nM GST-HMGN1ΔC, three technical replicates, parent: est. 110000, read off a plot; for other: HMGN1ΔC / HMGN1 relative to canonical nuc.: parent: est. 1.0, read off a plot
GST-HMGN2 [2] = molecular target: GST-HMGN2 (UniProt P05204); test: as above; conditions: 0.625 nM GST-HMGN2, three technical replicates, parent: est. 54000, read off a plot
GST-HMGN2ΔC = test: as above; conditions: for response (RFU (background subtracted)): 0.625 nM GST-HMGN2ΔC, three technical replicates, parent: est. 100000, read off a plot; for other: HMGN2ΔC / HMGN2 relative to canonical nuc.: parent: est. 1.0, read off a plot
GST-HMGN1 [3] = molecular target: GST-HMGN1 (UniProt P05114); test: in vitro multiplex nucleosome-bead conjugate binding assay (titration); conditions: GST-HMGN1 at 5 on the x axis (axis uM; legend nM); raw RFU before normalization; parent: est. 160000; read off a plot
GST-HMGN2 [4] = molecular target: GST-HMGN2 (UniProt P05204); test: as above; conditions: GST-HMGN2 at 5 on the x axis (axis uM; legend nM); raw RFU before normalization; parent: est. 370000; read off a plot

Sequence of UniProt P05114 (P05114 whole entry, looked up): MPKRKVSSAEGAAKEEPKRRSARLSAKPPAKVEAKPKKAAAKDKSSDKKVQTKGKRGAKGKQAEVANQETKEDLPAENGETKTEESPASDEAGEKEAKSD

response (RFU (background subtracted)) (GST-HMGN1 [1]) | response (RFU (background subtracted)) (GST-HMGN1ΔC) | other: HMGN1ΔC / HMGN1 relative to canonical nuc. (GST-HMGN1ΔC) | response (RFU (background subtracted)) (GST-HMGN2 [2]) | response (RFU (background subtracted)) (GST-HMGN2ΔC) | other: HMGN2ΔC / HMGN2 relative to canonical nuc. (GST-HMGN2ΔC) | response (GST-HMGN1 [3]) | response (GST-HMGN2 [4]) | Substance
11000 | 66000 | 1.7 | 16000 | 52000 | 2.1 | 58000 RFU | 92000 RFU | canonical unmodified nucleosome (from UniProt P04908;O60814;P68431;P62805) H2A:E61A
22000 | 66000 | 1.1 | 25000 | 38000 | 1.2 | 74000 RFU | 110000 RFU | canonical unmodified nucleosome (from UniProt P04908;O60814;P68431;P62805) H2A:E92K
